Assay results taken from PMC314469, “Protein Interaction Networks by Proteome Peptide Scanning” (PLoS Biology, 2004).

T1: Boi2 SH3 (BOI2_YEAST), P39969
T1 chain: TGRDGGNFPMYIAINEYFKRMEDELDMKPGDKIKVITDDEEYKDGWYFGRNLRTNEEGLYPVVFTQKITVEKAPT

T2: Rvs167 SH3 (RV167_YEAST), P39743
T2 chain: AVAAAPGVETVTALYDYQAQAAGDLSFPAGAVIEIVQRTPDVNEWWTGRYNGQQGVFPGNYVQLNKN

T3: Yfr024 SH3 (LSB3_YEAST), P43603
T3 chain: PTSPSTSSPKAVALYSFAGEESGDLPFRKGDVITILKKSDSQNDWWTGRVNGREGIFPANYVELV

T4: Yhr016c SH3 (YSC84_YEAST), P32793
T4 chain: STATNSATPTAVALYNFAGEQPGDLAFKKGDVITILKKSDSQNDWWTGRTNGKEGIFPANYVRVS

T5: Boi1 SH3 (BOI1_YEAST), P38041
T5 chain: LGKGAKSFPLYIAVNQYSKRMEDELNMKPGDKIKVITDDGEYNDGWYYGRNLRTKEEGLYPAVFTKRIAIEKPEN


Molecular target: T1, Boi2 SH3 (BOI2_YEAST), P39969
Assay: SPOT array

Binder | normalised SPOT signal, Boehringer light units (BLU); mean over the file's lines of this peptide
QETPIIPKRIIHYS [YLR030W 11-24] | 246
QGPPNLPARDKSLV [YLL023C 9-22] | 23
PQGPGIPPRTYEAS [YPL084W 769-782] | 59.6
PQLPKSPSRYSLSR [YKL101W 622-635] | 775
PVGPKVPAKEPSPK [YEL043W 874-887] | 5.8
QGEPLDPKRPSTAS [YGL027C 141-154] | 23.1
QFVPIAPQRLNMIF [YMR247C 1015-1028] | 68.9
PTPPSPPAKRIPRS [YPR171W 305-318] | 134
PRGPLSPKKHVLPI [YPR107C 47-60] | 1.8
QDSPDMPEKESVYV [YER179W 310-323] | 42.6
PVYPSLPERSKVIL [YGR099W 44-57] | 34
PSAPKVPFKTLDSF [YNL315C 113-126] | 43
QAHPPKPKRREGDI [YKR050W 402-415] | 38.2
PRRPNEPGKGMKWR [YNL068C 402-415] | 49
PTAPNSPIKLGRRK [YIL112W 218-231] | 68.2
PTTPGYPSKDSDTE [YJR126C 341-354] | 27.1
PYPPSLPSRDLYEV [YLL028W 113-126] | 31.1
PVDPTTPVKLGPGI [YOL142W 12-25] | 21.4
PSNPALPKKLLNVP [YGL197W 345-358] | 78.6
QAAPRNPNKDATIA [YOR363C 59-72] | 10.5
QGLPASPSRAALRY [YBR038W 55-68] | 57.8
QEKPLTPLKYTKLI [YHL025W 160-173] | 28.6

Molecular target: T2, Rvs167 SH3 (RV167_YEAST), P39743
Assay: SPOT array

Binder | normalised SPOT signal, Boehringer light units (BLU); mean over the file's lines of this peptide
QETPIIPKRIIHYS [YLR030W 11-24] | 625
QGPPNLPARDKSLV [YLL023C 9-22] | 18500
PQGPGIPPRTYEAS [YPL084W 769-782] | 332
PQLPKSPSRYSLSR [YKL101W 622-635] | 391
PVGPKVPAKEPSPK [YEL043W 874-887] | 30.7
QGEPLDPKRPSTAS [YGL027C 141-154] | 45.6
QFVPIAPQRLNMIF [YMR247C 1015-1028] | 90
PTPPSPPAKRIPRS [YPR171W 305-318] | 59.3
PRGPLSPKKHVLPI [YPR107C 47-60] | 29.4
QDSPDMPEKESVYV [YER179W 310-323] | 4.7
PVYPSLPERSKVIL [YGR099W 44-57] | 4000
PSAPKVPFKTLDSF [YNL315C 113-126] | 37
QAHPPKPKRREGDI [YKR050W 402-415] | 41.1
PRRPNEPGKGMKWR [YNL068C 402-415] | 18.5
PTAPNSPIKLGRRK [YIL112W 218-231] | 11.6
PTTPGYPSKDSDTE [YJR126C 341-354] | 45.8
PYPPSLPSRDLYEV [YLL028W 113-126] | 944
PVDPTTPVKLGPGI [YOL142W 12-25] | 19
PSNPALPKKLLNVP [YGL197W 345-358] | 27.9
QAAPRNPNKDATIA [YOR363C 59-72] | 40.7
QGLPASPSRAALRY [YBR038W 55-68] | 62.5
QEKPLTPLKYTKLI [YHL025W 160-173] | 99.4

Molecular target: T3, Yfr024 SH3 (LSB3_YEAST), P43603
Assay: SPOT array

Binder | normalised SPOT signal, Boehringer light units (BLU); mean over the file's lines of this peptide
QETPIIPKRIIHYS [YLR030W 11-24] | 15200
QGPPNLPARDKSLV [YLL023C 9-22] | 36100
PQGPGIPPRTYEAS [YPL084W 769-782] | 2650
PQLPKSPSRYSLSR [YKL101W 622-635] | 1610
PVGPKVPAKEPSPK [YEL043W 874-887] | 381
QGEPLDPKRPSTAS [YGL027C 141-154] | 440
QFVPIAPQRLNMIF [YMR247C 1015-1028] | 1580
PTPPSPPAKRIPRS [YPR171W 305-318] | 8640
PRGPLSPKKHVLPI [YPR107C 47-60] | 289
QDSPDMPEKESVYV [YER179W 310-323] | 26.9
PVYPSLPERSKVIL [YGR099W 44-57] | 24100
PSAPKVPFKTLDSF [YNL315C 113-126] | 284
QAHPPKPKRREGDI [YKR050W 402-415] | 9260
PRRPNEPGKGMKWR [YNL068C 402-415] | 218
PTAPNSPIKLGRRK [YIL112W 218-231] | 547
PTTPGYPSKDSDTE [YJR126C 341-354] | 139
PYPPSLPSRDLYEV [YLL028W 113-126] | 8330
PVDPTTPVKLGPGI [YOL142W 12-25] | -0
PSNPALPKKLLNVP [YGL197W 345-358] | 1030
QAAPRNPNKDATIA [YOR363C 59-72] | 8.2
QGLPASPSRAALRY [YBR038W 55-68] | 522
QEKPLTPLKYTKLI [YHL025W 160-173] | 929

Molecular target: T4, Yhr016c SH3 (YSC84_YEAST), P32793
Assay: SPOT array

Binder | normalised SPOT signal, Boehringer light units (BLU); mean over the file's lines of this peptide
QETPIIPKRIIHYS [YLR030W 11-24] | 7820
QGPPNLPARDKSLV [YLL023C 9-22] | 64000
PQGPGIPPRTYEAS [YPL084W 769-782] | 1710
PQLPKSPSRYSLSR [YKL101W 622-635] | 391
PVGPKVPAKEPSPK [YEL043W 874-887] | 48.6
QGEPLDPKRPSTAS [YGL027C 141-154] | 418
QFVPIAPQRLNMIF [YMR247C 1015-1028] | 601
PTPPSPPAKRIPRS [YPR171W 305-318] | 0
PRGPLSPKKHVLPI [YPR107C 47-60] | 204
QDSPDMPEKESVYV [YER179W 310-323] | 0
PVYPSLPERSKVIL [YGR099W 44-57] | 21100
PSAPKVPFKTLDSF [YNL315C 113-126] | 176
QAHPPKPKRREGDI [YKR050W 402-415] | 740
PRRPNEPGKGMKWR [YNL068C 402-415] | 181
PTAPNSPIKLGRRK [YIL112W 218-231] | 175
PTTPGYPSKDSDTE [YJR126C 341-354] | 25
PYPPSLPSRDLYEV [YLL028W 113-126] | 16000
PVDPTTPVKLGPGI [YOL142W 12-25] | 179
PSNPALPKKLLNVP [YGL197W 345-358] | 87.4
QAAPRNPNKDATIA [YOR363C 59-72] | 46.6
QGLPASPSRAALRY [YBR038W 55-68] | 104
QEKPLTPLKYTKLI [YHL025W 160-173] | 7.1

Molecular target: T5, Boi1 SH3 (BOI1_YEAST), P38041
Assay: SPOT array

Binder | normalised SPOT signal, Boehringer light units (BLU); mean over the file's lines of this peptide
QETPIIPKRIIHYS [YLR030W 11-24] | 4800
QGPPNLPARDKSLV [YLL023C 9-22] | 63.2
PQGPGIPPRTYEAS [YPL084W 769-782] | 87.2
PQLPKSPSRYSLSR [YKL101W 622-635] | 14300
PVGPKVPAKEPSPK [YEL043W 874-887] | 88
QGEPLDPKRPSTAS [YGL027C 141-154] | 51.9
QFVPIAPQRLNMIF [YMR247C 1015-1028] | 427
PTPPSPPAKRIPRS [YPR171W 305-318] | 347
PRGPLSPKKHVLPI [YPR107C 47-60] | 110
QDSPDMPEKESVYV [YER179W 310-323] | 51.6
PVYPSLPERSKVIL [YGR099W 44-57] | 40.1
PSAPKVPFKTLDSF [YNL315C 113-126] | 75.4
QAHPPKPKRREGDI [YKR050W 402-415] | 133
PRRPNEPGKGMKWR [YNL068C 402-415] | 91
PTAPNSPIKLGRRK [YIL112W 218-231] | 135
PTTPGYPSKDSDTE [YJR126C 341-354] | 40.3
PYPPSLPSRDLYEV [YLL028W 113-126] | 36.2
PVDPTTPVKLGPGI [YOL142W 12-25] | 40.5
PSNPALPKKLLNVP [YGL197W 345-358] | 28.7
QAAPRNPNKDATIA [YOR363C 59-72] | 78.3
QGLPASPSRAALRY [YBR038W 55-68] | 1720
QEKPLTPLKYTKLI [YHL025W 160-173] | 78
